According to article PMC5014452:

Key:
Assay in all cases: EMSA
[1] = molecular target: recombinant human integrin α6β1 (Homo sapiens, UniProt P23229;P05556 24-1050;21-728)
[2] = molecular target: recombinant human integrin α6β4 (Homo sapiens, UniProt P23229;P16144 24-1050;28-710)
[3] = molecular target: recombinant murine integrin α6β4 (Mus musculus, UniProt Q61739;A2A863 24-1011;29-712)

Measured: binding result

recombinant murine integrin α6β4, sequence (Q61739 24-1011, chain 1 of 2): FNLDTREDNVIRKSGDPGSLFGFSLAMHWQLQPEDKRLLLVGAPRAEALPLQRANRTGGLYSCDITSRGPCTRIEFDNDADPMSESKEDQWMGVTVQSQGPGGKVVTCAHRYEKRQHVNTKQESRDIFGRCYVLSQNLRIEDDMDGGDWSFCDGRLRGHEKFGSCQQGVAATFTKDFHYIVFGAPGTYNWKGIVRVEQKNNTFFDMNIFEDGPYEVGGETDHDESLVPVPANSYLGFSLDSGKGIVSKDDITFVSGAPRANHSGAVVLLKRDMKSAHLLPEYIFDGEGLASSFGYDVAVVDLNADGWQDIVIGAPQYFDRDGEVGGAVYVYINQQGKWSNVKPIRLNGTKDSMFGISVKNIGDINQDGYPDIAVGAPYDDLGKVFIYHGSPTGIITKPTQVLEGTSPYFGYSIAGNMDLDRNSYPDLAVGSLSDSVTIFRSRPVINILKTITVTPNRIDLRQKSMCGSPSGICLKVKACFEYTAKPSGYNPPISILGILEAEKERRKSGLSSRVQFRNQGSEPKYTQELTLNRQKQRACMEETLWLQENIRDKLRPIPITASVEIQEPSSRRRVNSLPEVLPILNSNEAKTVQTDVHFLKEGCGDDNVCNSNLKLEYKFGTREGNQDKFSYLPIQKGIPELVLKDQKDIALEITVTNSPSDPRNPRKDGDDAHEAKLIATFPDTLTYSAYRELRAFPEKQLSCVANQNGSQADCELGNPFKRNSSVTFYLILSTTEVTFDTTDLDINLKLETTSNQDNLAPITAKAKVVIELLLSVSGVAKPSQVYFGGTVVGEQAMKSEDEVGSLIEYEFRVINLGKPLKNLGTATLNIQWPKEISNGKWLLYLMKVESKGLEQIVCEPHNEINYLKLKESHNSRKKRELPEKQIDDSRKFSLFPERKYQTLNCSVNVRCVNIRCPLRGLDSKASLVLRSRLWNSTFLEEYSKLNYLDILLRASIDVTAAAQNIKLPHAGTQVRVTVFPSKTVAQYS
recombinant murine integrin α6β4, sequence (A2A863 29-712, chain 2 of 2): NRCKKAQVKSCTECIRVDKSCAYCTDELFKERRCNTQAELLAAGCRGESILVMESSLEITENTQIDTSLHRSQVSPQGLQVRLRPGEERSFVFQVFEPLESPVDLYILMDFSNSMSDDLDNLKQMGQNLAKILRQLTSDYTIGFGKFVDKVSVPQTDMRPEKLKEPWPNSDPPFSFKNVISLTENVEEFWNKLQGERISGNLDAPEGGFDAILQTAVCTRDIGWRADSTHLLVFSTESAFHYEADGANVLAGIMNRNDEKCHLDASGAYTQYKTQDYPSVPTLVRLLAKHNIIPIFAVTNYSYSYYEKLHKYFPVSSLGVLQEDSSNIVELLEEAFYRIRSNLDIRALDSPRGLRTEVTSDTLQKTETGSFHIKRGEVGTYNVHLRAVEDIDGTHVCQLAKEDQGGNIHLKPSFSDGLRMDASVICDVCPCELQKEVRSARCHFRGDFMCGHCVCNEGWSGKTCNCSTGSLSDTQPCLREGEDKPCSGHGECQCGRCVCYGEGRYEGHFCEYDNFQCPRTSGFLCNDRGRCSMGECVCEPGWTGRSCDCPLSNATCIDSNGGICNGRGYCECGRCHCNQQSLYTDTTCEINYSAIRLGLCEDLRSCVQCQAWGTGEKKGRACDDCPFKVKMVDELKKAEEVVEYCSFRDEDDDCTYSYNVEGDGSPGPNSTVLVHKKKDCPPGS
recombinant human integrin α6β4, sequence (P23229 24-1050, chain 1 of 2): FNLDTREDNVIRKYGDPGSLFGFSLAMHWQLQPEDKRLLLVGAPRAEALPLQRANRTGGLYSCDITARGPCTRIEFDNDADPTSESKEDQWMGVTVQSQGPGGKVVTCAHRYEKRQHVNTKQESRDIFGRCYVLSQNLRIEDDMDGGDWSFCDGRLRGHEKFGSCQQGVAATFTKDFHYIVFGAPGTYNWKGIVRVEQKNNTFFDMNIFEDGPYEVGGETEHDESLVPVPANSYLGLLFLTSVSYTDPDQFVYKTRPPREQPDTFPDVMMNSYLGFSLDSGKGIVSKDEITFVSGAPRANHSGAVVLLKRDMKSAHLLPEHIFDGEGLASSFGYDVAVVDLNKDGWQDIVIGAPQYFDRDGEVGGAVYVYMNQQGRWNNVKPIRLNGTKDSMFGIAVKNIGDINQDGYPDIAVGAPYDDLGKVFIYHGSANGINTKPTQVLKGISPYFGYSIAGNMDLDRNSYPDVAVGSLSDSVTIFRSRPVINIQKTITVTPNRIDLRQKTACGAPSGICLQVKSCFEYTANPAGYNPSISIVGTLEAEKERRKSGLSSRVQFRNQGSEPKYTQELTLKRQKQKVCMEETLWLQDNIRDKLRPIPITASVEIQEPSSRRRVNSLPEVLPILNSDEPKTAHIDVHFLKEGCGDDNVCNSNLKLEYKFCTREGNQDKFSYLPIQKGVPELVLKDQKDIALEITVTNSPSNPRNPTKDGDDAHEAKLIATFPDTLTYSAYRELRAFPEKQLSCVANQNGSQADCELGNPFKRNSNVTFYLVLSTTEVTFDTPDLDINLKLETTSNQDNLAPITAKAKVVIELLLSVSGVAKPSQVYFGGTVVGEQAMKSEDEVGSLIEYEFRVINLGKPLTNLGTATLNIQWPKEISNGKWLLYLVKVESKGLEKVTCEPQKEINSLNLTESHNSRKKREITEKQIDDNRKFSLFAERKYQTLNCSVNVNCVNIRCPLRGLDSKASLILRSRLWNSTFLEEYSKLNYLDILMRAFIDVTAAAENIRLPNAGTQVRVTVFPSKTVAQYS
recombinant human integrin α6β4, sequence (P16144 28-710, chain 2 of 2): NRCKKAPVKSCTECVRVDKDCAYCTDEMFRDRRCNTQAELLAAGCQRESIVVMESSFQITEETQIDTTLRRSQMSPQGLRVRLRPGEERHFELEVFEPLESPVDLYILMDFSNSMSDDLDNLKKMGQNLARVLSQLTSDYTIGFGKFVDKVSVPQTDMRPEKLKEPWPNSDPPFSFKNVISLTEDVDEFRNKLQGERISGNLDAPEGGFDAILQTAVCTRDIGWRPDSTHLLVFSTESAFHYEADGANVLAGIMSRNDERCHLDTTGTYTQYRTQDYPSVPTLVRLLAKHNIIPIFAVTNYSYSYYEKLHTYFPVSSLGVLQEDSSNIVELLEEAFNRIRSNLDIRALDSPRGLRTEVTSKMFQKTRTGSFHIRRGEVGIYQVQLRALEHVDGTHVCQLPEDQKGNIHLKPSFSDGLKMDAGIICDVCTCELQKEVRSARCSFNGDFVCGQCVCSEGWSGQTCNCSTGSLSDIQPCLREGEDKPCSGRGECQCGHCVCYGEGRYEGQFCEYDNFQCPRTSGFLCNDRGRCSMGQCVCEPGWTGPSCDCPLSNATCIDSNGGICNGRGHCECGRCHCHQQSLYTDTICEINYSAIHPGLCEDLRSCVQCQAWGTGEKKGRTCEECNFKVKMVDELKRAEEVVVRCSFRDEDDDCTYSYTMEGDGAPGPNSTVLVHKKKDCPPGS
recombinant human integrin α6β1, sequence (P23229 24-1050, chain 1 of 2): as the sequence (P23229 24-1050, chain 1 of 2) above
recombinant human integrin α6β1, sequence (P05556 21-728, chain 2 of 2): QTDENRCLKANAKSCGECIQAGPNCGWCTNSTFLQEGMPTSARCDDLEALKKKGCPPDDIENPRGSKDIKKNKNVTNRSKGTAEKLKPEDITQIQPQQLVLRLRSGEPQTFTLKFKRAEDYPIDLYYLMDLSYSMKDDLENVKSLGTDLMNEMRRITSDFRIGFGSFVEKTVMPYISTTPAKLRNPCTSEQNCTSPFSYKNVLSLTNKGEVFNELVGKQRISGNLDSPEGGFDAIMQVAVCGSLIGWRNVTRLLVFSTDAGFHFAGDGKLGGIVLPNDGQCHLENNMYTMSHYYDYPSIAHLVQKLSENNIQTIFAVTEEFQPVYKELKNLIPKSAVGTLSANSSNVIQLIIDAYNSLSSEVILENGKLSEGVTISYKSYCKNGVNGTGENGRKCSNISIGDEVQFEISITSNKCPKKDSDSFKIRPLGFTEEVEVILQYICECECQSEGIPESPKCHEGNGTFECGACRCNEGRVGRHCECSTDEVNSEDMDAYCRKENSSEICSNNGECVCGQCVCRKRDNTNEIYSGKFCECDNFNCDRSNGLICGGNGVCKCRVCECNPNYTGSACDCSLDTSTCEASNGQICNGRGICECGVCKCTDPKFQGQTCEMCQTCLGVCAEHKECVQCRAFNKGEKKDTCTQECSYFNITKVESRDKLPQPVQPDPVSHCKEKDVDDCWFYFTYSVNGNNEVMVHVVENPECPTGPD

B1: IDA (nc28) (ssDNA)
DNA: GCCTGTTGTGAGCCTCCTAACCGTGCGTATTCGTACTGGAACTGATATCGATGTCCCCATGCTTATTCTTGTCTCCC
binds: [1] | [2] | [3]
